# Measured values: patent publication US20230087785A1, “Leucine-Rich Repeat Kinase 2 Allosteric Modulators” (VIB VZW, priority 2020, published 2023)
# Where a chain is given by its changes, count along the chain named.
# T1: LRRK2 kinase-WD40 domain construct (human, UniProt Q5S007 1876-2527)
# T1 construct: also called K-WD40; not shown: N-terminal His-tag (pFastBac)
# T1 sequence: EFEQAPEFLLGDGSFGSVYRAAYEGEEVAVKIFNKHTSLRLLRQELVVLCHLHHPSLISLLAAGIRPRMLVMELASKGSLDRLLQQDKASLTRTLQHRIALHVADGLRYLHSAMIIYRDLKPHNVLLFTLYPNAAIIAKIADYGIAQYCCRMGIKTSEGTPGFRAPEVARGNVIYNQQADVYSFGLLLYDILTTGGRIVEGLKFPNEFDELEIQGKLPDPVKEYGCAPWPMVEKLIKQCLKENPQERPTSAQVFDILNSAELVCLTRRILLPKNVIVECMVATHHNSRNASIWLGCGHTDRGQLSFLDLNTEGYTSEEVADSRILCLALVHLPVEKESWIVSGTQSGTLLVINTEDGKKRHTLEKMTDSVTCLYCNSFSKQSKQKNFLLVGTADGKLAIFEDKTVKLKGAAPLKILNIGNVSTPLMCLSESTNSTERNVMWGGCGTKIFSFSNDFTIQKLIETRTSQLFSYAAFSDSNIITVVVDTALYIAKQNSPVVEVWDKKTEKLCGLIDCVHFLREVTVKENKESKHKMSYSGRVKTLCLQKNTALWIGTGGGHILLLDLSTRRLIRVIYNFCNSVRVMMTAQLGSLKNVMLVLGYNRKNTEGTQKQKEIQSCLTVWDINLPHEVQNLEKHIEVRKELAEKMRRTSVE
# T2: LRRK2 RocCOR domain construct (human, UniProt Q5S007 1334-1840)
# T2 construct: A second construct (residues 1293-1840, N-terminal His6-MBP) was used in certain screening experiments; not shown: N-terminal Twin-Strep-tag; C-terminal His10-tag
# T2 sequence: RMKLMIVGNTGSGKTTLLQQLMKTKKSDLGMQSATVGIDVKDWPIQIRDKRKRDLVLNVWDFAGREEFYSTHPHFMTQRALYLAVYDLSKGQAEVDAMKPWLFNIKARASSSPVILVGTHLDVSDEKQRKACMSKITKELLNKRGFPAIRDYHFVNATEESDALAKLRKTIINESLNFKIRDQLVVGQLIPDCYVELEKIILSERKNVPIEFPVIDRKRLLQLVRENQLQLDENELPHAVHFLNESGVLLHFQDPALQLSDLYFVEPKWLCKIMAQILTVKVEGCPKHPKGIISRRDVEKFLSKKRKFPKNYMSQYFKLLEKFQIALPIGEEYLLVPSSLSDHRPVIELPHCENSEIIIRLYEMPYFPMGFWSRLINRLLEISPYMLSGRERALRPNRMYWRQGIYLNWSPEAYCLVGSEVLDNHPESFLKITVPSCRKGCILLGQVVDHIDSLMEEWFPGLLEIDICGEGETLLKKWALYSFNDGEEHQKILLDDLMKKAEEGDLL
# T3: LRRK2 Roc domain construct (human, UniProt Q5S007 1329-1520)
# T3 construct: not shown: N-terminal His6-tag of pET-28a
# T3 sequence: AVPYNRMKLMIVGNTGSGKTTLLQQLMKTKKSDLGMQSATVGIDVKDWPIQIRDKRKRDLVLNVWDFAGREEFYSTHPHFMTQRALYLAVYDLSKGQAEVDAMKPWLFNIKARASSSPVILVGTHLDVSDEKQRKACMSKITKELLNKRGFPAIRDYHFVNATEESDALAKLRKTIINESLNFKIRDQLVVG
# B1: Nb35 (CA16072) (VHH)
# VHH: QVQLVESGGGLVQPGGSLRLSCAASGFPFSTYYMSWVRQAPGKGLEWVSAISPGGDTAYADSVKDRFTISRDSAKNTVYLQMSSLKPEDTAVYYCAAVRFLRAPDLTEKRLYEYWGQGTQVTVSS
# B2: Nb3 (CA12614) (VHH)
# VHH: QVQLVESGGGLVQPGGSLRLSCAASGSIFRRNAMGWYRQVTGKERELVAGITSGGYTNYRDFVKGRFTISRDNAKNTVYLQMNNLKPEDTAVYYCNLLSEMLQTVWGQGTQVTVSS
# B3: Nb17 (CA13606) (VHH)
# VHH: QVQLVESGGGLVQPGGSLRLSCAASGSNIGYMAWYRQAPGSQRELVARIASGGSANYADSVKGRFTISRDNVKNTVYLHMNSLKPVDTAVYYCHADAWYNSRWSDYWGQGTQVTVSS
# B4: Nb36 (CA14130) (VHH)
# VHH: QVQLVESGGGLVQPGGSLRLSCAASGSIRSITTSAWFRQPPGKQRELVAGISSGTSTNYADSVKGRFTISRDNAKNTVYLQMNSLKPEDTAVYYCHVWISGTWYSGQGTQVTVSS
# B5: Nb38 (CA14133) (VHH)
# VHH: B4 VHH with T32A, F37Y, S56T, V97A, Y104I
# B6: Nb39 (CA14134) (VHH)
# VHH: QVQLVESGGGLVQAGGSLRLSCRASGGTFSTYAMGWFRQVPGKERETVAAVKWSGDMTYYADSVKGRFTISRDNAKNTVYLQMNSLRPEDTAVYYCAARRGLSYYRGPSEYDYWGQGTQVTVSS
# B7: Nb37 (CA14131) (VHH)
# VHH: QVQLVESGGGLVQPGGSLRLSCAASGSVFSTNTMAWFRQAPGKQREWVGGITPGGFTNYINSVKGRFTISRDNANNTIYLQMSSLRPEDTAVYYCNTLSRMALWGQGTQVTVSS
# Legend:
# [1] = target: T1, LRRK2 kinase-WD40 domain construct; test: ELISA, antigen coated on the plate, purified Nb detected via its EPEA tag
# In short: (§1)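 The RocCOR, Roc, COR-B and kinase-WD40 constructs were coated side by side on one ELISA plate. Binding of each purified nanobody to every coated construct was then detected.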
# [2] = target: T4, LRRK2 COR-B construct (C-terminal part of the COR domain), His6-MBP tagged (human, UniProt Q5S007 1672-1840); test: as above
# T4 construct: also called (MBP-)COR-B; not shown: N-terminal His6-MBP-tag of pDEST-566
# In short: as §1
# [3] = target: T2, LRRK2 RocCOR domain construct; test: as above
# In short: as §1
# [4] = target: T3, LRRK2 Roc domain construct; test: as above
# In short: as §1
# [5] = target: T5, Full-length human Leucine-rich repeat kinase 2 (LRRK2), N-terminal Strep/Flag (SF) tagged (human, UniProt Q5S007 1-2527); test: MST; LRRK2 titrated to m-TAMRA-labelled Nb, 500 µM GDP
# T5 construct: Purified from HEK293T cells in presence of GDP or GTPγS; also called FL LRRK2; FL-LRRK2
# T5 sequence (Q5S007 other isoform, or with tags, fused parts or gaps limits assumed): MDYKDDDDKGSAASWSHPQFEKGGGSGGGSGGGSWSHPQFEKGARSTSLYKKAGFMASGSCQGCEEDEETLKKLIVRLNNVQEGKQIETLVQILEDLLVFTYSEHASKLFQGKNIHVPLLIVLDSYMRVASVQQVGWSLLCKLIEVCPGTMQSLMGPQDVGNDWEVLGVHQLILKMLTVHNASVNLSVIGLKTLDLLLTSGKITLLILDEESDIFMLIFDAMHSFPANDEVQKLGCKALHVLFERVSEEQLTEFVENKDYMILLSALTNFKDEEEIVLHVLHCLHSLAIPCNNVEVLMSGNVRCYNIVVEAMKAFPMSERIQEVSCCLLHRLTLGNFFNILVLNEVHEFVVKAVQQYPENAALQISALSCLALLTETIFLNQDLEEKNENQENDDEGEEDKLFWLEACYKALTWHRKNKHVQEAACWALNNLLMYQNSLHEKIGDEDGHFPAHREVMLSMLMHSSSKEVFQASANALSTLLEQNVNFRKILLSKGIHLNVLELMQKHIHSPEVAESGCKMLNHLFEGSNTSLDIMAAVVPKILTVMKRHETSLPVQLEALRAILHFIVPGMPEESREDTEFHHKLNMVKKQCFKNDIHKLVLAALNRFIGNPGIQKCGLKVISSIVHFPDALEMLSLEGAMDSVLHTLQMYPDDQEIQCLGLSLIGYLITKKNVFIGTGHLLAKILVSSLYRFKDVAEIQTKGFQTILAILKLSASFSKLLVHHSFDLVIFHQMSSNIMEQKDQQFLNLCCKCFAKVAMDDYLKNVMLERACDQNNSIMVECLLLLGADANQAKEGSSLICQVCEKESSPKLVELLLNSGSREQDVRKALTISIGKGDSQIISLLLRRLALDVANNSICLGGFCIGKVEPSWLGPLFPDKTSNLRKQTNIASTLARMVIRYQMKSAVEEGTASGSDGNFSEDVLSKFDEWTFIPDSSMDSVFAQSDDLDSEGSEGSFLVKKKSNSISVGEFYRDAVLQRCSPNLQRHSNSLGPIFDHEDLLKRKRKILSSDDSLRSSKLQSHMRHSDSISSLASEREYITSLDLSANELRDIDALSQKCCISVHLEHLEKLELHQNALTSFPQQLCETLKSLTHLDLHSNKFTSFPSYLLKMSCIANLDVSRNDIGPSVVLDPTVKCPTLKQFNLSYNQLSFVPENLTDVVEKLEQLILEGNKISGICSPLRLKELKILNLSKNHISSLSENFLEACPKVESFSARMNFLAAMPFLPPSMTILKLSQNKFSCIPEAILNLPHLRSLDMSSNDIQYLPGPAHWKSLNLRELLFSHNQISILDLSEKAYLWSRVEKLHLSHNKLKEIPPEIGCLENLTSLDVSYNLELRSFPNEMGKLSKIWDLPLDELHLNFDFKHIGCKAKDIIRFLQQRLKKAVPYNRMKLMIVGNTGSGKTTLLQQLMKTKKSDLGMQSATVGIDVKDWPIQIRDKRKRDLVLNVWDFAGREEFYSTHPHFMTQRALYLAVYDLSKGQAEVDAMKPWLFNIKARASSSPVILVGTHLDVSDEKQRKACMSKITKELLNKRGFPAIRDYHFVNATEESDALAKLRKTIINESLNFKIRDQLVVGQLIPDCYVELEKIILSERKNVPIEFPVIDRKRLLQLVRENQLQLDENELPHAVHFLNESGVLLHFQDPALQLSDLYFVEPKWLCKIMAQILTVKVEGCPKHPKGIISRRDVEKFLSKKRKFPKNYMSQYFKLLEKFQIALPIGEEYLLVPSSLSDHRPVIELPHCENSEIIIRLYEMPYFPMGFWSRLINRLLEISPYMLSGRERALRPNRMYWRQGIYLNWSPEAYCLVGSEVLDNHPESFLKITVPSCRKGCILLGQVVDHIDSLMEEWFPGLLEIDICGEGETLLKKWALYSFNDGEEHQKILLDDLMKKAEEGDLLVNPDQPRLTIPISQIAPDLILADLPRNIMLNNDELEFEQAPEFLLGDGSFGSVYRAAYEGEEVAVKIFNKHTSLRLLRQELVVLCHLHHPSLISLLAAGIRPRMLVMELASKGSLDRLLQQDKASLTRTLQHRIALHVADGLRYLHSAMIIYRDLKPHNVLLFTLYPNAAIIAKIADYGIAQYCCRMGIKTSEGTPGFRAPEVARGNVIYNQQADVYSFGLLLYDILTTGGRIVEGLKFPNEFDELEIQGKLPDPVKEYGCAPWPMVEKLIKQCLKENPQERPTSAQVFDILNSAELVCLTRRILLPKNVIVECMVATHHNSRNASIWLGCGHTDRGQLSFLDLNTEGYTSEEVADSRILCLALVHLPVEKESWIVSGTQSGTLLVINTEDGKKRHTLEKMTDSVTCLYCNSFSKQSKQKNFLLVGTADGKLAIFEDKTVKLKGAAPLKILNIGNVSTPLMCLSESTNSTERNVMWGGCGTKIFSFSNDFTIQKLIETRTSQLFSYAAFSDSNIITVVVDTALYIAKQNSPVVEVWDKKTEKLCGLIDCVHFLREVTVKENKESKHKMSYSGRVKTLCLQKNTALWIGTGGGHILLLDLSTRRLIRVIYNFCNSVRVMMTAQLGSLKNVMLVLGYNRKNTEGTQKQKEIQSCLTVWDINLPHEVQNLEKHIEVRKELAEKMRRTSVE
# Method: Microscale thermophoresis (MST) experiments were performed for determining equilibrium binding affinities (KD) of Nbs binding to FL-LRRK2. Therefore, Nb were site-specifically labelled at their C-terminus with m-TAMRA, using Sortase-mediated peptide exchange. The Nbs were recloned into a pHEN29 vector which is subsequently used to express and purify the Nbs with a C-terminal LPETGG-His₆-EPEA tag. Exchange of the latter peptide with an m-TAMRA-labeled GGGYK peptide (GenicBio, Shanghai, China) was performed using Sortase, and unlabeled Nb and unincorporated peptide were removed using a Ni-NTA and SEC purification step, respectively. […] After incubation at 4° C. for 30 mins, samples were loaded in capillaries and measurements were performed at 25° C. using 50-70% LED power and 80% laser intensity (laser on-time: 30 s, laser off-time: 5 s). All experiments were performed in triplicate.
# [6] = target: T5, Full-length human Leucine-rich repeat …; test: BLI; Nb on LRRK2 trapped on streptavidin sensor via biotinylated Nb40; steady-state fit
# Method: To determine the binding affinity (dissociation constant KD) of the ten Nbs for LRRK2, two methods were used in parallel: microscale thermophoresis (MST) and bio-layer interferometry (BLI). For the MST experiment, we site-specifically labeled the ten Nbs with a m-TAM RA fluorophore at its C-terminus, using sortase-mediated coupling, and then titrated increasing amounts of full-length LRRK2 to these Nbs (FIGS. 13A-13E).
# Biolayer interferometry (BLI) measurements were performed using an Octet Red96 (Forte Bio, Inc.) system in a buffer containing 50 mM HEPES pH 8.0, 150 mM NaCl, 10 mM MgCl₂, 5% glycerol, 0.1% BSA, 0.05% Tween, at 25° C. and with shaking speed 1000 rpm. […] The biotinylated Nbs were first loaded on pre-equilibrated SA biosensors at a concentration of 5 μg/mL. This Nb-loaded sensor was then used to trap FL-LRRK2 from a 50 nM LRRK2 solution. […] All experiments were performed in triplicate.
# [7] = target: T3, LRRK2 Roc domain construct; test: ELISA, purified Nb on coated domain constructs
# Text: (§2) We recombinantly expressed and purified the RocCOR, Roc, COR-B and kinase-WD40 (K-WD40) domain constructs of LRRK2 (FIG. 7). Subsequently, we performed an ELISA in which all these domain constructs were coated in parallel next to each other in the same ELISA plate, and where we subsequently detected binding of the 42 purified Nbs. […] To enrich in Nbs directed against the Roc domain we specifically included a selection step with either Roc-GTPγS or Roc-GDP.
# [8] = target: T1, LRRK2 kinase-WD40 domain construct; test: ELISA, purified Nb on coated domain constructs
# Text: as §2
# [9] = target: T4, LRRK2 COR-B construct (C-terminal part …); test: ELISA, purified Nb on coated domain constructs
# Text: as §2
# [10] = target: T2, LRRK2 RocCOR domain construct; test: ELISA, purified Nb on coated domain constructs
# Text: as §2
Binder,binding result [1],binding result [2],binding result [3],binding result [4],Kd [5] [nM],Kd [6] [nM],binding result [7],binding result [8],binding result [9],binding result [10]
B1,no binding (tested: not given),no binding (tested: not given),no binding (tested: not given),,,,,,,
B2,no binding (tested: not given),,,no binding (tested: not given),,,,,,
B3,,,,,67,11,no binding,no binding,no binding,no binding
B4,,,,,78,51,no binding,no binding,no binding,no binding
B5,,,,,48,86,no binding,no binding,no binding,no binding
B6,,,,,79,21,no binding,no binding,no binding,no binding
B7,,,,,,,no binding,no binding,no binding,no binding
